The values that follow are results of earlier work, collected in patent US7776891B2, “VLA-4 antagonists” (Merck Sharp & Dohme Corp., priority 2004, dated 2010).

This data set deals with T1, VLA-4 (Homo sapiens, UniProt P13612).
T1 construct: host or cells: circulating VLA-4-bearing leukocytes of trial subjects (endogenous)
The conditions noted are these: early clinical trials.

On to “natalizumab: humanized monoclonal antibody against α4 (Antegren®, Elan/Biogen)”, for which the “lymphocytosis (a surrogate marker for blockade of VLA-4 function)” value is given as “observed” and the receptor occupancy was > 80%.
